# In patent publication US10513713B2, “Modified host cells having tolerance to α-olefins” (priority 2014, dated 2019):
# Residue numbers refer to the chain shown, from its start. Names may count otherwise.
# B1: AcrA and AcrB: plasmid-borne wild type acrA and acrB in an operon under an arabinose inducible promoter (pABc) (protein, UniProt P0AE06 25-397; P31224 1-1049, looked up)
# Multidrug efflux pump subunit … 1: CDDKQAQQGGQQMPAVGVVTVKTEPLQITTELPGRTSAYRIAEVRPQVSGIILKRNFKEGSDIEAGVSLYQIDPATYQATYDSAKGDLAKAQAAANIAQLTVNRYQKLLGTQYISKQEYDQALADAQQANAAVTAAKAAVETARINLAYTKVTSPISGRIGKSNVTEGALVQNGQATALATVQQLDPIYVDVTQSSNDFLRLKQELANGTLKQENGKAKVSLITSDGIKFPQDGTLEFSDVTVDQTTGSITLRAIFPNPDHTLLPGMFVRARLEEGLNPNAILVPQQGVTRTPRGDATVLVVGADDKVETRPIVASQAIGDKWLVTEGLKAGDRVVISGLQKVRPGVQVKAQEVTADNNQQAASGAQPEQSKS
# Multidrug efflux pump subunit … 2: MPNFFIDRPIFAWVIAIIIMLAGGLAILKLPVAQYPTIAPPAVTISASYPGADAKTVQDTVTQVIEQNMNGIDNLMYMSSNSDSTGTVQITLTFESGTDADIAQVQVQNKLQLAMPLLPQEVQQQGVSVEKSSSSFLMVVGVINTDGTMTQEDISDYVAANMKDAISRTSGVGDVQLFGSQYAMRIWMNPNELNKFQLTPVDVITAIKAQNAQVAAGQLGGTPPVKGQQLNASIIAQTRLTSTEEFGKILLKVNQDGSRVLLRDVAKIELGGENYDIIAEFNGQPASGLGIKLATGANALDTAAAIRAELAKMEPFFPSGLKIVYPYDTTPFVKISIHEVVKTLVEAIILVFLVMYLFLQNFRATLIPTIAVPVVLLGTFAVLAAFGFSINTLTMFGMVLAIGLLVDDAIVVVENVERVMAEEGLPPKEATRKSMGQIQGALVGIAMVLSAVFVPMAFFGGSTGAIYRQFSITIVSAMALSVLVALILTPALCATMLKPIAKGDHGEGKKGFFGWFNRMFEKSTHHYTDSVGGILRSTGRYLVLYLIIVVGMAYLFVRLPSSFLPDEDQGVFMTMVQLPAGATQERTQKVLNEVTHYYLTKEKNNVESVFAVNGFGFAGRGQNTGIAFVSLKDWADRPGEENKVEAITMRATRAFSQIKDAMVFAFNLPAIVELGTATGFDFELIDQAGLGHEKLTQARNQLLAEAAKHPDMLTSVRPNGLEDTPQFKIDIDQEKAQALGVSINDINTTLGAAWGGSYVNDFIDRGRVKKVYVMSEAKYRMLPDDIGDWYVRAADGQMVPFSAFSSSRWEYGSPRLERYNGLPSMEILGQAAPGKSTGEAMELMEQLASKLPTGVGYDWTGMSYQERLSGNQAPSLYAISLIVVFLCLAALYESWSIPFSVMLVVPLGVIGALLAATFRGLTNDVYFQVGLLTTIGLSAKNAILIVEFAKDLMDKEGKGLIEATLDAVRMRLRPILMTSLAFILGVMPLVISTGAGSGAQNAVGTGVMGGMVTATVLAIFFVPVFFVVVRRRFSRKNEDIEHSHTVDHH
# B2: Q584R: E. coli AcrB (SEQ ID NO:1) variant with amino acid mutation Q584R (protein)
# chain: B1 Multidrug efflux pump subunit … 2 with Q584R
# modifications: E. coli
# Key:
# Assay type in all cases: cell-based
# E. coli K12 [1] = assay: microbe, parasite or virus in culture; settings: Escherichia coli, K12, 2 h, read-out: toxic dose (concentration of compound that decreased growth by half)
# Experimental: A: The olefin compounds were added to different concentrations as indicated to an E. coli K12 culture at an OD600=0.2. OD was monitored after 2 hour at 37° C. The bars represent standard deviation between duplicates B: A survival test in presence of 1-octene was performed. Six different dilutions of a culture (10 cells to 10^7 cells, left to right) of E. coli K12 were spotted in triplicate on an agar plate. […] Plates were incubated at room temperature for 2 days and then opened to allow evaporation of the olefin.
# In this example, toxicity of olefin compounds was evaluated. A toxic dose was defined as the concentration of compound that decreased growth by half.
# E. coli K12 [2] = assay: Survival test on agar plate with 1-octene overlay; settings: 2 days at room temperature, FIG. 1B
# Experimental: FIG. 1. Impact of styrene, 1-hexene and 1-octene on cell growth. A: The olefin compounds were added to different concentrations as indicated to an E. coli K12 culture at an OD600=0.2. OD was monitored after 2 hour at 37° C. The bars represent standard deviation between duplicates B: A survival test in presence of 1-octene was performed. Six different dilutions of a culture (10 cells to 10^7 cells, left to right) of E. coli K12 were spotted in triplicate on an agar plate. An overlay of 1-octene was added over the cells (controls had no overlay). Plates were incubated at room temperature for 2 days and then opened to allow evaporation of the olefin.
# For agar plate based assays, cells were first streaked overnight and few colonies were used to inoculate a preculture of 6 mL of LB-Cm with glucose (2 g/L) and arabinose (5 mM). At OD60=1 at 37° C., the cultures were used to prepare a dilution series. Dilution 0 (D0) corresponds to the OD600, =1, and contains ˜10^9 cells/mL. Dilution 1 (D1) is a 10-fold dilution of D0, dilution 2 (D2) a 10-fold dilution of D1 up to dilution 5 (D5), which contains ˜10^4 cells/mL. 10 μL of each dilution was spotted in triplicate on LB-agar plates (single well plates, Thermo Scientific, Waltham, Mass.) containing 30 mL of LB-agar, Cm (30 mg/L), glucose (2 g/L) and arabinose (5 mM). […]
# E. coli K12 ΔacrAB [3] = assay: Survival assay on agar plate in olefin saturated atmosphere, strains producing AcrAB or AcrB variants
# Experimental: (§1) FIG. 2: impact of AcrAB production on growth, in presence of styrene 1-hexene, 1-octene and 1-nonene on cell growth. A: Different concentrations of styrene were added to an OD600=0.2 culture of E. coli K12 ΔacrAB containing the pABc (white) or the control plasmid p0c (black). OD density was monitored after 2 hours of growth at 37° C. The bars represent standard deviation between duplicates. B: A survival test in presence of 1-hexene, 1-octene, or 1-nonene saturated atmosphere was performed. Six different dilutions of cultures (10 cells to 10^7 cells, left to right on the figure) were spotted in triplicate on an agar plates. Plates were then exposed to the aforementioned chemicals.
# FIG. 4: Impact of beneficial mutations on AcrB on tolerance to 1-hexene, A: Survival test of E. coli strain producing either the AcrB wild type or variants in a 1-hexene saturated atmosphere was performed. Two dilutions of cultures (Dilution 1: 10^5 cells and Dilution 2: 10^4 cells) were spotted in triplicate on an agar plate. B: Localization of the 6 beneficial mutations represented on the structure of a single monomer of AcrB or C: on the structure of the AcrB trimer.
# FIG. 6: Impact of beneficial mutations on AcrB on tolerance to 1-hexene. A: Survival test of E. coli strain producing either the AcrB Wild type or variants with 1, 2 or several beneficial mutations, in an 1-hexene saturated atmosphere was performed. Two dilutions of cultures (Dilution 2: 10^4 cells and Dilution 3: 10^3 cells) were spotted in triplicate on an agar plate. B: Soluble fraction of total proteins from a culture of strains producing either the wild type, either the variant F617L, either the variant 6 (A279T, Q584R, F617L) were analyzed by western blot using anti-His antibody.
# For agar plate based assays, cells were first streaked overnight and few colonies were used to inoculate a preculture of 6 mL of LB-Cm with glucose (2 g/L) and arabinose (5 mM). At OD60=1 at 37° C., the cultures were used to prepare a dilution series. Dilution 0 (D0) corresponds to the OD600, =1, and contains ˜10^9 cells/mL. Dilution 1 (D1) is a 10-fold dilution of D0, dilution 2 (D2) a 10-fold dilution of D1 up to dilution 5 (D5), which contains ˜10^4 cells/mL. 10 μL of each dilution was spotted in triplicate on LB-agar plates (single well plates, Thermo Scientific, Waltham, Mass.) containing 30 mL of LB-agar, Cm (30 mg/L), glucose (2 g/L) and arabinose (5 mM). Small containers (microfuge tube lids) were placed on the open lid of the agar plate and filled with 400 to 600 μL of 1-hexene or 1-octene or with 75 μL of 1-nonene. The agar plates were then inverted over the lid, cells facing the olefin compound, sealed with parafilm, placed in the plastic bag (the original packaging for the petri dishes) and incubated for 2 days at room temperature. For 1-octene, a second condition, via overlaying 2 mL of compound on the top of the agar submerging the cells, was used. TolC overexpression impact was examined using the same method, but in this case, the LB media and the LB-agar were also supplemented with ampicillin (100 mg/L) and IPTG (100 μM). […]
# E. coli K12 ΔacrAB [4] = assay: Growth in liquid culture with 1-hexene, styrene or bile salts, strains producing AcrAB or AcrB variants
# Experimental: as §1
# FIG. 5: Impact of beneficial AcrB mutations on growth, in presence of 1-hexene and styrene. Different concentrations of 1-hexene (A), styrene (B), or bile salts (C) were added to an OD600=0.2 culture of E. Coli K12 ΔacrAB containing either the AcrB wild type (pABc) or the AcrB variants. OD densities were monitored after 2 hours of culture at 37° C. The bars represent standard deviation between duplicates.
# Cells were first inoculated in 6 mL LB-Cm with glucose (2 g/L) and arabinose (5 mM). […] After 2 hours at 37° C., OD600 was measured. […]
# E. coli K12 wild type = assay: Survival test in 1-hexene saturated atmosphere on over-production of AcrA, AcrB and TolC; settings: FIG. 3
# Experimental: Six different dilutions of cultures (10 cells to 10^7 cells, left to right on the picture) were spotted in triplicate on an agar plate.
# For agar plate based assays, cells were first streaked overnight and few colonies were used to inoculate a preculture of 6 mL of LB-Cm with glucose (2 g/L) and arabinose (5 mM). At OD60=1 at 37° C., the cultures were used to prepare a dilution series. Dilution 0 (D0) corresponds to the OD600, =1, and contains ˜10^9 cells/mL. Dilution 1 (D1) is a 10-fold dilution of D0, dilution 2 (D2) a 10-fold dilution of D1 up to dilution 5 (D5), which contains ˜10^4 cells/mL. 10 μL of each dilution was spotted in triplicate on LB-agar plates (single well plates, Thermo Scientific, Waltham, Mass.) containing 30 mL of LB-agar, Cm (30 mg/L), glucose (2 g/L) and arabinose (5 mM). […] The agar plates were then inverted over the lid, cells facing the olefin compound, sealed with parafilm, placed in the plastic bag (the original packaging for the petri dishes) and incubated for 2 days at room temperature. For 1-octene, a second condition, via overlaying 2 mL of compound on the top of the agar submerging the cells, was used. TolC overexpression impact was examined using the same method, but in this case, the LB media and the LB-agar were also supplemented with ampicillin (100 mg/L) and IPTG (100 μM).
molecule,measurement,setting,value
C=CCCCCCC [1-octene],IC50,E. coli K12 [1],> 1000 µg/mL
same,toxicity relative to the other olefins tested,E. coli K12 [2],less toxic
B1,"survival and growth in 1-hexene, 1-octene and 1-nonene","E. coli K12 ΔacrAB [3]; pump expression vs control plasmid, saturated atmosphere, FIG. 2B",strong advantage
same,survival in the presence of styrene compared to control plasmid,"E. coli K12 ΔacrAB [4]; pABc vs p0c, styrene, FIG. 2A",enhanced survival
same,tolerance to 1-hexene on over-expression in the wild type strain,E. coli K12 wild type,greater than the wild type
B2,efficiency among the beneficial mutations,E. coli K12 ΔacrAB [3]; 1-hexene saturated atmosphere,more efficient
same,tolerance to 1-hexene relative to wild type AcrB sequence,"E. coli K12 ΔacrAB [3]; single mutation AcrB variants, 1-hexene saturated atmosphere, FIG. 4A",improvement in tolerance
same,growth of the strain in presence of bile salts,"E. coli K12 ΔacrAB [4]; bile salts, FIG. 5C",improved the growth
